Assay results from PMC11853027.

Biological target: LS174T cells
Experiment: cell-binding assay, cell-bound Hoc detected by Western blot
Details: After 1.5 h of incubation; parent: est. 1.0; read off a plot

Row | Substance | other: Ratio of Hoc/MUC2
1 | Hoc protein of phage ΦPNJ-9 (wild type, recombinant) L184 | 0.5
2 | Hoc protein of phage ΦPNJ-9 (wild type, recombinant) S183 | 0.53
3 | Hoc protein of phage ΦPNJ-9 (wild type, recombinant) T185 | 0.47
